Experimental findings from patent US20130210023, “NUCLEIC ACID […] AGAINST PLASMODIUM LACTATE DEHYDROGENASE AND HISTIDINE-RICH PROTEIN II AND USES […] FOR MALARIA DIAGNOSIS” (THE UNIVERSITY OF HONG KONG, published 2013) are described below.

Series [1] deals with T1, Plasmodium falciparum lactate dehydrogenase (PfLDH) (Plasmodium falciparum 3D7, UniProt Q76NM3 Q76NM3:1-316). Kind of series: ITC; nanomolar Kd, value only in figure; N=0.177; 25 mM Tris-HCl pH 7.5, 0.1 M NaCl, 20 mM imidazole, 25 C. As to conditions: chain copies: 4 stated (tetramer in crystal). (In ITC the heat of successive injections is recorded.)
Series [2] deals with T1, Plasmodium falciparum lactate …. Kind of series: structure; crystal structure, two aptamers per PfLDH tetramer; contacts residues 102-108, Asp53, Ile54 (A) and Lys62, His250 (B). As to conditions: chain copies: 4 stated (tetramer in crystal); last 8 nt disordered; not G4.
In series [3] the target is human lactate dehydrogenase A1 (hLDHA1) (Homo sapiens, UniProt P00338 P00338:1-332). Kind of series: ITC; no binding by ITC, EMSA and SPR; no AuNP color change.
Series [4] addresses human lactate dehydrogenase B (hLDHB) (Homo sapiens, UniProt P07195 P07195:2-334). The series is described as above. As to conditions: tags: His tag (pET-28a, HisTrap purified); chain copies: 4; last 8 nt disordered; not G4.
Series [5] deals with T1, Plasmodium falciparum lactate …. In words: ITC; nanomolar, similar Kd and stoichiometry to 2009s; same buffer, 25 C. As to conditions: chain copies: 4 stated (tetramer in crystal).
For series [6] the target is unchanged. In words: ITC; nanomolar Kd, value only in figure; N=0.451; 25 mM Tris-HCl pH 7.5, 0.1 M NaCl, 20 mM imidazole, 25 C. The settings on record: chain copies: 4 stated (tetramer in crystal).
Series [7] shares this target. In words: ITC; nanomolar Kd, value only in figure; N=0.152; 25 mM Tris-HCl pH 7.5, 0.1 M NaCl, 20 mM imidazole, 25 C. The settings on record: chain copies: 4 stated (tetramer in crystal).

human lactate dehydrogenase B (hLDHB), sequence (P07195 2-334, one chain of several): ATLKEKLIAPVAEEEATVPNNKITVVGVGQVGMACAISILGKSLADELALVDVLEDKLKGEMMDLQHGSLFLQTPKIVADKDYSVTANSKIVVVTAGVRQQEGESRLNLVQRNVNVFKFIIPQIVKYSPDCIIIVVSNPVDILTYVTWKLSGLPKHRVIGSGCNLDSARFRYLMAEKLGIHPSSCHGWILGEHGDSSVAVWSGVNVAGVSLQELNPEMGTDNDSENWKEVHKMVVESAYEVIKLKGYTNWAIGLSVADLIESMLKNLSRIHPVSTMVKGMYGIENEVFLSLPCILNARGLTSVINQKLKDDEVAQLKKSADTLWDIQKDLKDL

B1: 2021s (ssDNA)
DNA: AGAATGGCGGGAGAGCCTTAGCGACCATTCGTAC
With B1, the binding result in series [1] is listed as “binds”.

B2: 2008s (ssDNA)
DNA: CTGGGCGGTAGAACCATAGTGACCCAGCCGTCTAC
With B2, the binding result in series [2] is reported as “binds”; in series [3], “no binding”; in series [4] it was “no binding”.

B3: 2009 (2009s with 18-mer flanks on both ends) (ssDNA)
DNA: CGTACGGTCGACGCTAGCTAGGTGGCCAGAAGGTAGAACCATAGTGGTCTGGTACACGTGGAGCTCGGATCC
For the molecule B3, the binding result in series [5] is “binds”.

B4: 2009s (ssDNA)
DNA: TAGGTGGCCAGAAGGTAGAACCATAGTGGTCTGGTA
As for B4, the binding result in series [6] is reported as “binds”.

B5: 2004s (ssDNA)
DNA: ACGCGAGCAGGTGGTAGAATCATAATGGCCTGATC
Take B5: in series [7], the binding result is “binds”.
